According to US20150098945A1 (Daiichi Sankyo, published 2015):
Substitutions are numbered along the chain they refer to.

Legend:
[1] = target: T1, N-terminal FLAG-tagged human ROBO4 extracellular region/domain deletion variant hROBO4-210 (human, UniProt Q8WZ75 210-1007); experiment: flow cytometry, HEK293 cells transfected with pCI-FLAG-hROBO4-210, anti-mouse IgG FITC; control histogram IgG (Mouse IgG2a)
T1 construct: On transfected HEK293 cells; also called pCI-FLAG-hROBO4-210; pCI-hROBO4-210
T1 sequence: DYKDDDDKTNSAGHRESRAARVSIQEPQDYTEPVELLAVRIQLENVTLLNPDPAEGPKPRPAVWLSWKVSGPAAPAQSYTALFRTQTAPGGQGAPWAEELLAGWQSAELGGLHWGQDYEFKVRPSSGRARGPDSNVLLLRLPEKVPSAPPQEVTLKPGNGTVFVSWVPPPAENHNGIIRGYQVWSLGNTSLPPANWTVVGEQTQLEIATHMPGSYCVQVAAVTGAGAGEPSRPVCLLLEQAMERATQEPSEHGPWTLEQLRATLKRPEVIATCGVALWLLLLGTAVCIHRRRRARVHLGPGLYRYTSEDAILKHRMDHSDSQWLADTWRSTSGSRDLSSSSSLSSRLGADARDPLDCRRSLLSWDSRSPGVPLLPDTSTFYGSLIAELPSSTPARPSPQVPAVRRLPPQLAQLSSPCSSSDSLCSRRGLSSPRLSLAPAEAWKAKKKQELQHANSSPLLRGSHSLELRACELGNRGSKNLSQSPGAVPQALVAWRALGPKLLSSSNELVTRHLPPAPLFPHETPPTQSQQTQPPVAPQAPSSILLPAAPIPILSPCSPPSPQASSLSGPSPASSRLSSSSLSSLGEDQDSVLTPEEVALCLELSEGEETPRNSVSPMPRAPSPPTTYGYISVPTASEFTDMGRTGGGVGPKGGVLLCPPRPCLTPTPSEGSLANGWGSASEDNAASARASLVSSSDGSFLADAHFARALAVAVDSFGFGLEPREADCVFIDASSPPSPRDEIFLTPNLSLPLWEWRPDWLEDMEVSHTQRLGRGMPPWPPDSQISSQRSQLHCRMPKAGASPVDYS
Method: HEK293 cells were inoculated at a concentration of 1.5×10⁶ cells/dish to a 60-mm dish (manufactured by Corning Inc.) and cultured overnight in a DMEM medium containing 10% FBS at 37° C. under 5% CO₂ conditions. […] On the next day, the expression vector-transfected cells were treated with TrypLE Express (manufactured by Life Technologies Corp.), washed with PBS containing 5% FBS, and then suspended in PBS containing 5% FBS. The obtained cell suspension was used in flow cytometry analysis.
Each cell suspension prepared in 4)-5-1 was centrifuged, and the supernatant was removed. Then, MAb1, a positive control Monoclonal ANTI-FLAG M2 antibody produced in mouse, or a negative control Mouse IgG2a was added at a concentration of 10 μg/mL to 2×10⁵ expression vector-transfected cells, and the resulting suspension was left standing at 4° C. for 1 hour. The cells were washed once with PBS containing 5% FBS. Then, Anti-Mouse IgG FITC conjugate diluted 1000-fold with PBS containing 5% FBS was added thereto, and the resulting suspension was left standing at 4° C. for 1 hour. […] Data was analyzed using Flowjo. The histogram of FITC fluorescence intensity was prepared. The antibody was determined to bind to a cell when the histogram of MAb1 was shifted to a stronger fluorescence intensity region compared with the histogram of the negative control Mouse IgG2a. […]

[2] = target: T2, N-terminal FLAG-tagged cynomolgus monkey ROBO4, cynoROBO4-1 (pCI-FLAG-cynoROBO4-1) (cynomolgus monkey, UniProt Q8WZ75 28-1007 (human entry)); experiment: flow cytometry (FC500), HEK293 cells transfected with pCI-FLAG-cynoROBO4-1, antibody at 10 µg/mL, FITC goat anti-human IgG Fc; control histogram IgG (human IgG)
T2 chain: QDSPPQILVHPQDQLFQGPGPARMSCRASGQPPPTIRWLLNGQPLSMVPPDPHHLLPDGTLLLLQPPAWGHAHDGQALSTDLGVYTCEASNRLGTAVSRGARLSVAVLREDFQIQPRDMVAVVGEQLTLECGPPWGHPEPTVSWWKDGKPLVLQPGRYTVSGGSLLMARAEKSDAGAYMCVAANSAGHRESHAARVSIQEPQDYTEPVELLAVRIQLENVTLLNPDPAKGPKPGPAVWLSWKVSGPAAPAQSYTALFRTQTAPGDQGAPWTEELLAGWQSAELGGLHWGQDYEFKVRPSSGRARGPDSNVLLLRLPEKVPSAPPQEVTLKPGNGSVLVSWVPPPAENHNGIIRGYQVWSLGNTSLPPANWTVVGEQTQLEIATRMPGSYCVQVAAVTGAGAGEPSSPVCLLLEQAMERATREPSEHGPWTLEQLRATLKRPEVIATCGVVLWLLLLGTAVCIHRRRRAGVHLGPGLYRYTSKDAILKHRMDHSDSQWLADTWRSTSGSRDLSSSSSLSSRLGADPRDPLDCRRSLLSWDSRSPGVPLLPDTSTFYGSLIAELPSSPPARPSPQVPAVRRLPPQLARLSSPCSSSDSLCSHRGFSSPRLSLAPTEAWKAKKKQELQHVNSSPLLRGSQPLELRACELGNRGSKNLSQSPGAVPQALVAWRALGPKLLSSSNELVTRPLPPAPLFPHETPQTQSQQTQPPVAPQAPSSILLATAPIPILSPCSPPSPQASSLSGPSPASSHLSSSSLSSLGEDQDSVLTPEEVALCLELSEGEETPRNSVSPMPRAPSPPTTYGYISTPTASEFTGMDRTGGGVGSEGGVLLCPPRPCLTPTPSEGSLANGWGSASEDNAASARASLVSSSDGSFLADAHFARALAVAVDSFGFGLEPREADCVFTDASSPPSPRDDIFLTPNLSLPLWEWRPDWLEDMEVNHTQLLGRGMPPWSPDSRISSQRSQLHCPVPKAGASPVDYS

[3] = target: T2, N-terminal FLAG-tagged cynomolgus …; experiment: flow cytometry on transfected HEK293 cells

B1: anti-ROBO4 mouse monoclonal antibody MAb1 (antibody, mouse IgG1, V domains shown)
VH: EVQLVESGGGLVKPGGSLKLSCAASGFTFSTYAMSWVRQTPEKRLEWVATISNGGTYTYYPDSVKGRFTISRDNAENTLYLQMSSLRSEDTAMYFCARLIYYDYLDYWGHGTTLTVSS
VL: DAVMTQTPLSLPVSLGDQASISCRSSQSLENSNGNTYLNWYFQKPGQSPQLLIYRVSNRFSGVLDRFSGSGSGTDFTLKISRVEAEDFGVYFCLQVTHVPWTFGGGTKLEIKR
notes: Mouse IgG1 (gamma1), kappa light chain, purified from hybridoma supernatant; also called parent antibody MAb1
- binding result [1]: no binding (tested: 10 µg/mL)

B2: humanized MAb1 antibody H-1143 (antibody, human IgG2, kappa, V domains shown)
VH: EVQLVESGGGLVQPGGSLRLSCAASGFTFSTYAMSWVRQAPGKGLEWVATISQGGTYTYYPDSVKGRFTISRDNAKNTLYLQMNSLRAEDTAVYYCARLIYYDYLDYWGQGTLVTVSS
VL: DIVMTQSPLSLPVTLGEPASISCRSSQSLENENKNLYLNWYLQKPGQSPQLLIYRVSNRFSGVPDRFSGSGSGTDFTLKISRVEAEDVGVYYCLQVTHVPWTFGPGTKVDIKR
notes: Human IgG2 / kappa constant regions; also called hMAb1-H2-type heavy chain + hMAb1-L2-type light chain
- binding result [2]: binds

B3: humanized MAb1 antibody H-1140 (antibody, human IgG2, kappa, V domains shown)
VH: B2 VH
VL: B2 VL with E32S, K34G, L36T
notes: Human IgG2 / kappa constant regions; also called hMAb1-H2-type heavy chain + hMAb1-L1-type light chain
- binding result [3]: binds
